Reference: patent CN110577603A (BEIJING DONGFANG BIOTECH CO LTD, dated 2019)

T1: CD19 (on Raji lymphoma cells) (UniProt P15391 20-556, limits assumed)
T1 sequence (looked up): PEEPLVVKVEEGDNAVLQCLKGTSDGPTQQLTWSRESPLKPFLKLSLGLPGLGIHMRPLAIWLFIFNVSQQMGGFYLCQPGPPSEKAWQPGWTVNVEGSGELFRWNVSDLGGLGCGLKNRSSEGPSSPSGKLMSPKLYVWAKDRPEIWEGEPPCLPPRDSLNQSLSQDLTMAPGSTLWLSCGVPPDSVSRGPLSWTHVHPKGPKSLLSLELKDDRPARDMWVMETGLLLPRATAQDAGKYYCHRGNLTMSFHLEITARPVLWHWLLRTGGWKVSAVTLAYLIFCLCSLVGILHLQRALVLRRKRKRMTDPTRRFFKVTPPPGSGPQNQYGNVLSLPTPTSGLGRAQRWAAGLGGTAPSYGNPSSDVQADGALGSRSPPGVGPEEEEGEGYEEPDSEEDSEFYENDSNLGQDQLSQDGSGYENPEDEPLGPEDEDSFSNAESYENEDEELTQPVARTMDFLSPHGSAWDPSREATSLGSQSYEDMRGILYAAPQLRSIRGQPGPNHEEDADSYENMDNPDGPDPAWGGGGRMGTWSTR


Tests used:
[1] = target: T1, CD19 (on Raji lymphoma cells); assay: cell-based or functional assay
[2] = target: T1, CD19 (on Raji lymphoma cells); assay: flow cytometry on Raji cells (CD19 positive), Alexa488 anti-human IgG-Fc, MFI fitted
CD3 (on Jurkat T cells) = target: T2, CD3 (on Jurkat T cells) (UniProt P07766 23-207); assay: flow cytometry on Jurkat cells (CD3 positive), Alexa488 anti-human IgG-Fc, MFI fitted
T2 construct: whole, on cells; Jurkat is a human cell line; also called CD3抗原; 细胞表面CD3
T2 sequence (P07766 23-207): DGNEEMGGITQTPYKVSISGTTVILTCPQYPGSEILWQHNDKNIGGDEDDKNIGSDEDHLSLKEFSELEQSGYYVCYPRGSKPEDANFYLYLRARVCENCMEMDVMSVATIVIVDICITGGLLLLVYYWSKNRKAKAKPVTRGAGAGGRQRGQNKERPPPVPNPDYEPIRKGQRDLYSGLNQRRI

Row | Binder | EC50 of PBMC-mediated killing of Raji cells (LDH release) [1] | EC50 [2] | EC50 (CD3 (on Jurkat T cells))
1 | 抗CD3和抗CD19双特异性抗体 JY039 (bispecific antibody, Three chains: anti-CD3 single-chain unit (full light chain - linker - full heavy chain), anti-CD19 heavy chain, anti-CD19 light chain; constant regions preferably IgG4, linker preferably (GGGGS)6; also called 双特异抗体JY039; not shown: linker (GGGGX)n, X = Gly or Ser, n = 1-6; preferred X = Ser and n = 6; IgG4 heavy chain constant region (preferred; light chain constant region of the anti-CD19 unit; …)) chain (part 1 of 2): not shown chain (part 2 of 2): not shown heavy: QVQLQQSGAELVRPGSSVKISCKASGYAFSSYWMNWVKQRPGQGLEWIGQIWPGDGDTNYNGKFKGKATLTADESSSTAYMQLSSLASEDSAVYFCARRETTTVGRYYYAMDYWGQGTTVTVSS light: DIQLTQSPASLAVSLGQRATISCKASQSVDYDGDSYLNWYQQIPGQPPKLLIYDASNLVSGIPPRFSGSGSGTDFTLNIHPVEKVDAATYHCQQSTEDPWTFGGGTKLEIK | 1.26 pM | 1.02 nM | –
2 | 抗CD19的单克隆抗体 (built from the anti-CD19 sequences of JY039) (antibody, V domains shown, also called AntiCD19McAb; 抗CD19单克隆抗体) VH: QVQLQQSGAELVRPGSSVKISCKASGYAFSSYWMNWVKQRPGQGLEWIGQIWPGDGDTNYNGKFKGKATLTADESSSTAYMQLSSLASEDSAVYFCARRETTTVGRYYYAMDYWGQGTTVTVSS VL: DIQLTQSPASLAVSLGQRATISCKASQSVDYDGDSYLNWYQQIPGQPPKLLIYDASNLVSGIPPRFSGSGSGTDFTLNIHPVEKVDAATYHCQQSTEDPWTFGGGTKLEIK | 222 pM | 0.191 nM | –
3 | v5851双特异抗体 (专利CN105531374 A) (bispecific antibody) chain 1: not shown chain 2: not shown chain 3: DIVMTQSPATLSLSPGERATLSCRSSKSLQNVNGNTYLYWFQQKPGQSPQLLIYRMSNLNSGVPDRFSGSGSGTEFTLTISSLEPEDFAVYYCMQHLEYPITFGAGTKLEIKRTVAAPSVFIFPPSDEQLKSGTASVVCLLNNFYPREAKVQWKVDNALQSGNSQESVTEQDSKDSTYSLSSTLTLSKADYEKHKVYACEVTHQGLSSPVTKSFNRGEC | 30 pM | 2.49 nM | 59.8 nM
